This passage reports Fold Shift of EC50 and Inhibition of Maximal Response results from patent US20110294738A1, “PTHR1 RECEPTOR COMPOUNDS” (priority 2008, published 2011).

In the experiment the target is PTHR1 receptor.

* marks the point of attachment. Palmitoyl = CCCCCCCCCCCCCCCC(=O)*

Chain of PTHR1 receptor (P25961 whole entry): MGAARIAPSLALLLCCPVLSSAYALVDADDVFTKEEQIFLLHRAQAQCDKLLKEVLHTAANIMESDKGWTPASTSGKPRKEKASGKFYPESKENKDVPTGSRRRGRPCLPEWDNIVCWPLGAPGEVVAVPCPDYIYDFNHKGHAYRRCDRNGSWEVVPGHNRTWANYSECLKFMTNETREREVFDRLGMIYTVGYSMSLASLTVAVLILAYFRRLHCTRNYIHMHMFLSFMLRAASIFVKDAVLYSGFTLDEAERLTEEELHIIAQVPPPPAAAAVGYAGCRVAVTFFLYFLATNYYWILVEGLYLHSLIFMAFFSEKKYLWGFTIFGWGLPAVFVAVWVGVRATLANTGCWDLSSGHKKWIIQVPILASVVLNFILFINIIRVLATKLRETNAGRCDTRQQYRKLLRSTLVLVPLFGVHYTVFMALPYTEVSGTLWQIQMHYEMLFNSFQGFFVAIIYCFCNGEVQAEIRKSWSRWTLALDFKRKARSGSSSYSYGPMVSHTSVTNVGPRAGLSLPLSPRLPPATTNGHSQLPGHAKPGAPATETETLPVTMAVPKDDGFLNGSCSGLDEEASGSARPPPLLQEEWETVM

B1: Compound 105 (peptide)
peptide: Palmitoyl-NGEVQAEIKKSWSRWTLALD-NH2
SMILES: CCCCCCCCCCCCCCCC(=O)N[C@@H](CC(N)=O)C(=O)NCC(=O)N[C@@H](CCC(=O)O)C(=O)N[C@H](C(=O)N[C@@H](CCC(N)=O)C(=O)N[C@@H](C)C(=O)N[C@@H](CCC(=O)O)C(=O)N[C@H](C(=O)N[C@@H](CCCCN)C(=O)N[C@@H](CCCCN)C(=O)N[C@@H](CO)C(=O)N[C@@H](Cc1c[nH]c2ccccc12)C(=O)N[C@@H](CO)C(=O)N[C@@H](CCCNC(=N)N)C(=O)N[C@@H](Cc1c[nH]c2ccccc12)C(=O)N[C@H](C(=O)N[C@@H](CC(C)C)C(=O)N[C@@H](C)C(=O)N[C@@H](CC(C)C)C(=O)N[C@@H](CC(=O)O)C(N)=O)[C@@H](C)O)[C@@H](C)CC)C(C)C
As for B1, the Fold Shift of EC50 came to 1.1 fold and the Inhibition of Maximal Response is 34%.

B2: Compound 78 (peptide)
peptide: Palmitoyl-TNAGRSDTAQQYRKLL-NH2
SMILES: CCCCCCCCCCCCCCCC(=O)N[C@H](C(=O)N[C@@H](CC(N)=O)C(=O)N[C@@H](C)C(=O)NCC(=O)N[C@@H](CCCNC(=N)N)C(=O)N[C@@H](CO)C(=O)N[C@@H](CC(=O)O)C(=O)N[C@H](C(=O)N[C@@H](C)C(=O)N[C@@H](CCC(N)=O)C(=O)N[C@@H](CCC(N)=O)C(=O)N[C@@H](Cc1ccc(O)cc1)C(=O)N[C@@H](CCCNC(=N)N)C(=O)N[C@@H](CCCCN)C(=O)N[C@@H](CC(C)C)C(=O)N[C@@H](CC(C)C)C(N)=O)[C@@H](C)O)[C@@H](C)O
Consider B2, for which the Fold Shift of EC50 was found to be 12.7 fold and the Inhibition of Maximal Response was -29.2%.

B3: Compound 76 (peptide)
peptide: Palmitoyl-TNAGASDTRQQYRKLL-NH2
SMILES: CCCCCCCCCCCCCCCC(=O)N[C@H](C(=O)N[C@@H](CC(N)=O)C(=O)N[C@@H](C)C(=O)NCC(=O)N[C@@H](C)C(=O)N[C@@H](CO)C(=O)N[C@@H](CC(=O)O)C(=O)N[C@H](C(=O)N[C@@H](CCCNC(=N)N)C(=O)N[C@@H](CCC(N)=O)C(=O)N[C@@H](CCC(N)=O)C(=O)N[C@@H](Cc1ccc(O)cc1)C(=O)N[C@@H](CCCNC(=N)N)C(=O)N[C@@H](CCCCN)C(=O)N[C@@H](CC(C)C)C(=O)N[C@@H](CC(C)C)C(N)=O)[C@@H](C)O)[C@@H](C)O
For B3, the Fold Shift of EC50 was 16.9 fold and the Inhibition of Maximal Response was found to be 2.4%.

B4: Compound 6 (peptide)
peptide: Palmitoyl-YFRRLHSTRNYIH-NH2
SMILES: CCCCCCCCCCCCCCCC(=O)N[C@@H](Cc1ccc(O)cc1)C(=O)N[C@@H](Cc1ccccc1)C(=O)N[C@@H](CCCNC(=N)N)C(=O)N[C@@H](CCCNC(=N)N)C(=O)N[C@@H](CC(C)C)C(=O)N[C@@H](Cc1c[nH]cn1)C(=O)N[C@@H](CO)C(=O)N[C@H](C(=O)N[C@@H](CCCNC(=N)N)C(=O)N[C@@H](CC(N)=O)C(=O)N[C@@H](Cc1ccc(O)cc1)C(=O)N[C@H](C(=O)N[C@@H](Cc1c[nH]cn1)C(N)=O)[C@@H](C)CC)[C@@H](C)O
Take B4: the Fold Shift of EC50 amounted to 1 fold and the Inhibition of Maximal Response stood at 10.8%.

B5: Compound 80 (peptide)
peptide: Palmitoyl-TNAARSDTRQQYRKLL-NH2
SMILES: CCCCCCCCCCCCCCCC(=O)N[C@H](C(=O)N[C@@H](CC(N)=O)C(=O)N[C@@H](C)C(=O)N[C@@H](C)C(=O)N[C@@H](CCCNC(=N)N)C(=O)N[C@@H](CO)C(=O)N[C@@H](CC(=O)O)C(=O)N[C@H](C(=O)N[C@@H](CCCNC(=N)N)C(=O)N[C@@H](CCC(N)=O)C(=O)N[C@@H](CCC(N)=O)C(=O)N[C@@H](Cc1ccc(O)cc1)C(=O)N[C@@H](CCCNC(=N)N)C(=O)N[C@@H](CCCCN)C(=O)N[C@@H](CC(C)C)C(=O)N[C@@H](CC(C)C)C(N)=O)[C@@H](C)O)[C@@H](C)O
Turning to B5, the Fold Shift of EC50 was 2.3 fold and the Inhibition of Maximal Response was found to be 0.8%.

B6: Compound 82 (peptide)
peptide: Palmitoyl-TNAGRSATRQQYRKLL-NH2
SMILES: CCCCCCCCCCCCCCCC(=O)N[C@H](C(=O)N[C@@H](CC(N)=O)C(=O)N[C@@H](C)C(=O)NCC(=O)N[C@@H](CCCNC(=N)N)C(=O)N[C@@H](CO)C(=O)N[C@@H](C)C(=O)N[C@H](C(=O)N[C@@H](CCCNC(=N)N)C(=O)N[C@@H](CCC(N)=O)C(=O)N[C@@H](CCC(N)=O)C(=O)N[C@@H](Cc1ccc(O)cc1)C(=O)N[C@@H](CCCNC(=N)N)C(=O)N[C@@H](CCCCN)C(=O)N[C@@H](CC(C)C)C(=O)N[C@@H](CC(C)C)C(N)=O)[C@@H](C)O)[C@@H](C)O
With B6, the Fold Shift of EC50 came out at 23.4 fold and the Inhibition of Maximal Response is -21.6%.

B7: Compound 77 (peptide)
peptide: Palmitoyl-TNAGRADTRQQYRKLL-NH2
SMILES: CCCCCCCCCCCCCCCC(=O)N[C@H](C(=O)N[C@@H](CC(N)=O)C(=O)N[C@@H](C)C(=O)NCC(=O)N[C@@H](CCCNC(=N)N)C(=O)N[C@@H](C)C(=O)N[C@@H](CC(=O)O)C(=O)N[C@H](C(=O)N[C@@H](CCCNC(=N)N)C(=O)N[C@@H](CCC(N)=O)C(=O)N[C@@H](CCC(N)=O)C(=O)N[C@@H](Cc1ccc(O)cc1)C(=O)N[C@@H](CCCNC(=N)N)C(=O)N[C@@H](CCCCN)C(=O)N[C@@H](CC(C)C)C(=O)N[C@@H](CC(C)C)C(N)=O)[C@@H](C)O)[C@@H](C)O
In the case of B7, the Fold Shift of EC50 came out at 6.9 fold and the Inhibition of Maximal Response is 9.9%.

B8: Compound 79 (peptide)
peptide: Palmitoyl-TNAGRSDARQQYRKLL-NH2
SMILES: CCCCCCCCCCCCCCCC(=O)N[C@H](C(=O)N[C@@H](CC(N)=O)C(=O)N[C@@H](C)C(=O)NCC(=O)N[C@@H](CCCNC(=N)N)C(=O)N[C@@H](CO)C(=O)N[C@@H](CC(=O)O)C(=O)N[C@@H](C)C(=O)N[C@@H](CCCNC(=N)N)C(=O)N[C@@H](CCC(N)=O)C(=O)N[C@@H](CCC(N)=O)C(=O)N[C@@H](Cc1ccc(O)cc1)C(=O)N[C@@H](CCCNC(=N)N)C(=O)N[C@@H](CCCCN)C(=O)N[C@@H](CC(C)C)C(=O)N[C@@H](CC(C)C)C(N)=O)[C@@H](C)O
Regarding B8, the Fold Shift of EC50 was 7.2 fold and the Inhibition of Maximal Response came out at 1.2%.

B9: Compound 81 (peptide)
peptide: Palmitoyl-TNAGRSDTRAQYRKLL-NH2
SMILES: CCCCCCCCCCCCCCCC(=O)N[C@H](C(=O)N[C@@H](CC(N)=O)C(=O)N[C@@H](C)C(=O)NCC(=O)N[C@@H](CCCNC(=N)N)C(=O)N[C@@H](CO)C(=O)N[C@@H](CC(=O)O)C(=O)N[C@H](C(=O)N[C@@H](CCCNC(=N)N)C(=O)N[C@@H](C)C(=O)N[C@@H](CCC(N)=O)C(=O)N[C@@H](Cc1ccc(O)cc1)C(=O)N[C@@H](CCCNC(=N)N)C(=O)N[C@@H](CCCCN)C(=O)N[C@@H](CC(C)C)C(=O)N[C@@H](CC(C)C)C(N)=O)[C@@H](C)O)[C@@H](C)O
As to B9, the Fold Shift of EC50 was 13.8 fold and the Inhibition of Maximal Response is -20.8%.
